Experimental data taken from paper PMC2288801.
Each block holds one substance with its values, some of them ahead of it.

Columns and labels:
[1] = target: collagen type I (UniProt P02452)
[2] = target: laminin from the Engelbreth-Holm-Swarm murine tumor (mouse) (UniProt P19137)
[3] = target: human plasma fibronectin (human); experiment: ligand affinity chromatography
[4] = target: human plasma fibronectin (human)

Chain of UniProt P02452 (P02452 162-1218, chain 1 of 2): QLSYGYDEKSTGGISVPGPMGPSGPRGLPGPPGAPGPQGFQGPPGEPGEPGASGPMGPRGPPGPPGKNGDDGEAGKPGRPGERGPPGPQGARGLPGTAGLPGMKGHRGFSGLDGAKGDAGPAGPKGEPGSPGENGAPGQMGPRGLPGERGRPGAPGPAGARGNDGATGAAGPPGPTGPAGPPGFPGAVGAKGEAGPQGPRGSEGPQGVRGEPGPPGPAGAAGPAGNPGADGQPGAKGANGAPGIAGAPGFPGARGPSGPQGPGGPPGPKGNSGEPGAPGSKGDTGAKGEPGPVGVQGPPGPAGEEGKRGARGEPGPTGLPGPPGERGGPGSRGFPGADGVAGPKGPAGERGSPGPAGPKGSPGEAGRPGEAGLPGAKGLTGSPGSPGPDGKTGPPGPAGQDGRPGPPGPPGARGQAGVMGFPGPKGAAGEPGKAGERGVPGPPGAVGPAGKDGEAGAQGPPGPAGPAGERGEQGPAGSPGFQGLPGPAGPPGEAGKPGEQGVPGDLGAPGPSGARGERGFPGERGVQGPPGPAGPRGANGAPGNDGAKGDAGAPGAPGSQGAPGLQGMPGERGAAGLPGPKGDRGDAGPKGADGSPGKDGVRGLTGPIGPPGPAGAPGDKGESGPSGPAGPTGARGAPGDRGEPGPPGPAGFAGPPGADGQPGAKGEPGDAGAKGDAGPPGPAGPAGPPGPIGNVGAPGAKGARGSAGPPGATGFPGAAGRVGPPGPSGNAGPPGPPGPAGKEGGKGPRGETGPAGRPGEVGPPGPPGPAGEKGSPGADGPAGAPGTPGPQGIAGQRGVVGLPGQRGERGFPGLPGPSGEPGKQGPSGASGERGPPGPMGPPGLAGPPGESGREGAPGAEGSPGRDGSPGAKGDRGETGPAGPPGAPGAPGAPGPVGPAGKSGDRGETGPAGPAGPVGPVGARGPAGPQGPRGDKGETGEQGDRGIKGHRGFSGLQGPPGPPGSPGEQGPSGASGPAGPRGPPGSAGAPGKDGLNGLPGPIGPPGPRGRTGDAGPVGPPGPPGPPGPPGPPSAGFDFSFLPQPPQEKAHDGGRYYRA
Chain of UniProt P02452 (P08123 80-1119, chain 2 of 2, further chain): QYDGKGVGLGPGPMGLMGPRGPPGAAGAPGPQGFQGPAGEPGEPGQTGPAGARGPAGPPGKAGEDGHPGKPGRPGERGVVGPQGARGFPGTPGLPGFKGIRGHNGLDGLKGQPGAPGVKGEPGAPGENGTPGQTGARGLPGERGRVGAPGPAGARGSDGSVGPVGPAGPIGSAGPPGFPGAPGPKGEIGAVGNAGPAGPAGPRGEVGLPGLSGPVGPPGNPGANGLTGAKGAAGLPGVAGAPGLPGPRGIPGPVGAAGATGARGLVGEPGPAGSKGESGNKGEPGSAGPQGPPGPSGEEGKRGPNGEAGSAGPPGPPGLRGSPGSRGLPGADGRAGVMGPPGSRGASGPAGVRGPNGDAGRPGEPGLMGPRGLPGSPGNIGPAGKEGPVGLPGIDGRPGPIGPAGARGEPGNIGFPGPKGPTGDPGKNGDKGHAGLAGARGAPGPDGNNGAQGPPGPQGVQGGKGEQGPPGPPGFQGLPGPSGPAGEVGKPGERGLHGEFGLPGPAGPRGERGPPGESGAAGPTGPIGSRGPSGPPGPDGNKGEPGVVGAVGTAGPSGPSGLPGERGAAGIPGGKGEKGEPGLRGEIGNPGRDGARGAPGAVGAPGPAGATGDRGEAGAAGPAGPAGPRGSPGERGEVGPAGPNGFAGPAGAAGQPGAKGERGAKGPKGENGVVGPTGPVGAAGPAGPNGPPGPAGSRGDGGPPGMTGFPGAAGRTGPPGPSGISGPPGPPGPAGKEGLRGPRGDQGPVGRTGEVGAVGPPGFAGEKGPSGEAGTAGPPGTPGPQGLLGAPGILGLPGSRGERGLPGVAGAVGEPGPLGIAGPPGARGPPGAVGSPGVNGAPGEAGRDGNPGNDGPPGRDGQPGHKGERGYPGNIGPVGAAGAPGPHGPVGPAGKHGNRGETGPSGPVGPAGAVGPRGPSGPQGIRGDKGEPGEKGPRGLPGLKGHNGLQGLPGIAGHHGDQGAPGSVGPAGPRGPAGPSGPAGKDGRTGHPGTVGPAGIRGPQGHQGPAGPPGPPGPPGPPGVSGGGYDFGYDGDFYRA

Table II: inhibition of binding by Ca++ relative to Mg++ (ligand Coll-I,IV) [1]: 15% | Table II: stimulation of binding by Mn++ relative to Mg++ (ligand Coll-I,IV) [1]: 1.4 fold
Substance: integrin VLA-3 (alpha3 beta1) from NCI-H69 small cell lung carcinoma cells (from UniProt P05556 21-798) (receptor)

inhibition of LOX cell attachment to Lm by anti-VLA-6 mAb (GoH3) [2]: 77% | inhibition of NCI-H69 cell attachment to Lm by anti-VLA-6 mAb GoH3 [2]: 53%
Substance: integrin VLA-6 (alpha6 beta1) (from UniProt P05556 21-798) (receptor)

inhibition of LOX cell attachment to Coll type I by anti-VLA-2 mAb (5E8) [1]: 76%
Substance: integrin VLA-2 (alpha2 beta1) from LOX melanoma cells (from UniProt P17301;P05556) (receptor)

percent of VLA-3 bound to the column [3]: 100%
Substance: integrin VLA-3 (alpha3 beta1) from LOX melanoma cells (from UniProt P05556 21-798) (receptor)

inhibition of LOX cell attachment to Fn by anti-VLA-5 mAb (P1D6) [4]: 85%
Substance: integrin VLA-5 (alpha5 beta1) from LOX melanoma cells (from UniProt P05556 21-798) (receptor)
